The values below come from article PMC10649420, “Expression Patterns and Functional Analysis of Three SmTAT Genes Encoding Tyrosine Aminotransferases in Salvia miltiorrhiza” (International Journal of Molecular Sciences, 2023).

What all share (experiment): aminotransferase assay, product absorbance, microplate reader
What all share (format): biochemical, Salvia miltiorrhiza

One series has as its system SmTAT3. The conditions noted are these: 100 μM PLP, 30 °C, 30 min, 20 μg/mL enzyme. The source says:
aminotransferase assay, product absorbance, microplate reader on SmTAT3

Substrate in series [1]: N[C@@H](Cc1ccc(O)cc1)C(=O)O
The conditions noted are these: 10 mM alpha-ketoglutarate, 100 μM PLP, 30 °C, 30 min, 1 μg/mL enzyme. The source says:
(§1) aminotransferase assay, product absorbance, microplate reader on SmTAT1

Substrate in series [2]: N[C@@H](Cc1ccccc1)C(=O)O
The conditions noted are these: 10 mM alpha-ketoglutarate, 100 μM PLP, 30 °C, 30 min, 1 μg/mL enzyme.
Text: as §1

Substrate in series [3]: O=C(O)C(=O)Cc1ccc(O)cc1
The note with it: 10 mM glutamate, 100 μM PLP, 30 °C, 30 min, 1 μg/mL enzyme, reverse reaction.
Text: as §1

Substrate in series [4]: O=C(O)C(=O)Cc1ccccc1
The conditions noted are these: 10 mM glutamate, 100 μM PLP, 30 °C, 30 min, 1 μg/mL enzyme, reverse reaction.
Text: as §1

Substrate in series [5]: N[C@@H](Cc1ccc(O)cc1)C(=O)O
The note with it: 10 mM alpha-ketoglutarate, 100 μM PLP, 30 °C, 30 min, 20 μg/mL enzyme. From the text: (§2) aminotransferase assay, product absorbance, microplate reader on SmTAT2

Substrate in series [6]: N[C@@H](Cc1ccccc1)C(=O)O
The note with it: 10 mM alpha-ketoglutarate, 100 μM PLP, 30 °C, 30 min, 20 μg/mL enzyme.
Text: as §2

Substrate in series [7]: O=C(O)C(=O)Cc1ccc(O)cc1
The conditions noted are these: 10 mM glutamate, 100 μM PLP, 30 °C, 30 min, 20 μg/mL enzyme, reverse reaction.
Text: as §2

Substrate in series [8]: O=C(O)C(=O)Cc1ccccc1
The note with it: 10 mM glutamate, 100 μM PLP, 30 °C, 30 min, 20 μg/mL enzyme, reverse reaction.
Text: as §2

The mark [9] stands for this setting: 10 mM glutamate, reverse reaction.

The Km is the concentration of substrate that gives half-maximal velocity. `N[C@@H](Cc1ccc(O)cc1)C(=O)O` [tyrosine]: the Km in the series with SmTAT3 (10 mM alpha-ketoglutarate) worked out at 2730 ± 1610 µM.
With `N[C@@H](Cc1ccccc1)C(=O)O` [phenylalanine], the Michaelis-Menten constant (Km) in the series on SmTAT3 (10 mM alpha-ketoglutarate) is 5470 ± 3230 µM.
For `O=C(O)C(=O)Cc1ccc(O)cc1` [4-hydroxyphenylpyruvate], in the series with SmTAT3 (setting [9]), the Km amounted to 2220 ± 220 µM.
As to `O=C(O)C(=O)Cc1ccccc1` [phenylpyruvate], the Km in the series with SmTAT3 (setting [9]) worked out at 3910 ± 2010 µM.

B1: SmTAT1 (Salvia miltiorrhiza) (protein)
chain: MELQNPAQEIDAPTTITIKGILGLLMSSTDPKESGKRVISLGIGDPTAYSCFHASNAAQEGVVEALRSTKFNGYAPTAGLPQTREAIAEYLSRDLPYKLPADSVYVTAGCTQAIEIALSVLARPGANILLPRPCFPIYGLCASFRNIEVRYFDLHPEQGWEVDLDAVADLADHNTVAMVIINPGNPCGNVYSYQHLKKIAETAKRLGIVVIADEVYGHLAFGANPFVPMGIFGSIAPVVTLGSLSKRWLVPGWRLGWLVINDPDGSLMSPKFVERIKKYCDICGGPATFIQAAVPEIVEQTQEVFFRKTINILKQTSDICYQKIEDINGITCPTKPKGAMAFMVKLNLSRMKDISDDIDFCFKLAKEESVIILPGLAVGLKNWIRITFAVDVPALEEAMERLKSFCERHSY
notes: full ORF 1236 bp (about 411 residues) with GST tag (pGEX-4T-1), soluble from E. coli Arctic Express (DE3)
By Vmax is commonly meant the rate approached at saturating substrate. One may read the kcat as the number of substrate molecules converted per active site and unit of time at saturation. By kcat/Km is commonly meant the turnover number divided by the Michaelis constant. As for B1, the Km worked out at 310 ± 110 µM in series [1], 3080 ± 990 µM in series [2], 2770 ± 520 µM in series [3] and 710 ± 210 µM in [4]. The Vmax in series [1] worked out at 6.88 µmol/min/mg; in series [2], 4.36 µmol/min/mg; in series [3] it was 3.19 µmol/min/mg; in series [4], 3.63 µmol/min/mg. In addition, the kcat stood at 19.8 ± 0.93 s⁻¹ in series [1], 12.6 ± 1.43 s⁻¹ in series [2], 9.21 ± 0.78 s⁻¹ in [3] and 10.4 ± 0.39 s⁻¹ in series [4]. The kcat/Km in [1] worked out at 74400 ± 29400 M⁻¹ s⁻¹; in series [2], 4680 ± 2020 M⁻¹ s⁻¹; in series [3], 3500 ± 940 M⁻¹ s⁻¹; in series [4] it was 16300 ± 4620 M⁻¹ s⁻¹.

B2: SmTAT2 (Salvia miltiorrhiza) (protein)
chain: MPNSTERERERELSMENGGSAAARWRFEGNERLILAGGVTVRGVLNTVIGNLDGNDTRPVIPLGHGDPSAFPSFRTSPFAEDAVCSAVRSTKFNGYSSTVGIPAARSAVAEYLSKDLPYKLSPDDVFLTIGCTQALEAVVTVLARPGANLLLPRPGFPYYEARAGFCSLEFRHFDLLPEQDWEVDLASVEALADENTVAMVIINPGNPCGNVFKYEHLKKVAETARKLGILVISDEVYDHLTFGSNPFVPMGVFASIAPILTLGSISKRWIVPGWRLGWLVTNDPDGILTKQGIVDSIKGFLNISADPATFMQGAVPQILENTPSDFFQKIVSTLRETADICYERSKEIPCITCPSRPEGSMFAMVKLNLSLLEGIEDDMDFCCKLAKEESVILLPGFAVGLKNWLRVTFAIEPSSLDDGFLRIKAFHQRHAKKQ
As for B2, in series [5], the Km is 3470 ± 1690 µM, the maximum rate (Vmax) was 0.0486 µmol/min/mg, the kcat is 0.15 ± 0.03 s⁻¹ and the specificity constant (kcat/Km) was 60 ± 40 M⁻¹ s⁻¹. Also, in series [6], the Km is 6930 ± 3390 µM and the Vmax was 0.109 µmol/min/mg. In addition, in series [7], the Km is 480 ± 160 µM, the Vmax is 0.448 µmol/min/mg, the kcat worked out at 1.35 ± 0.08 s⁻¹ and the kcat/Km was determined as 3230 ± 1240 M⁻¹ s⁻¹. For the same molecule, in series [8], the Km came out at 3940 ± 990 µM, the Vmax was 0.057 µmol/min/mg, the kcat was determined as 0.17 ± 0.02 s⁻¹ and the specificity constant (kcat/Km) came out at 50 ± 20 M⁻¹ s⁻¹.
